Results on one molecule are retold here after US10494439 (dated 2019).

One test has as its target GLD52. Briefly: SPR.
For another test, the target named is Y436T. Briefly: SPR.

As for GQNDTSQTSSPS [CD52 peptide 741], the results for the Kd with GLD52 and with Y436T were 2.44 nM and 1.95 nM, respectively.
